In patent US20240067728A1 (BIO THERA SOLUTIONS, published 2024):
Like-named read-outs stand apart in the source and are kept apart here.

Tests used:
[1] = molecular target: T1, PD-L1 on CHO-PD-L1 cells (Promega PD-1/PD-L1 Blockade Bioassay) (UniProt Q9NZQ7 19-290, limits assumed); test: cell-based or functional assay
PD-L1-His antigen [2] = molecular target: T2, PD-L1-His antigen (human, UniProt Q9NZQ7 19-238); test: SPR (Biacore T200), PD-L1-His immobilised on chip, antibody as mobile phase, 1:1 Binding fit
T2 construct: Human PD-L1 ECD with C-terminal 8xHIS tag, expressed in HEK293F; also called hPDL1-His; human PD-L1-His

[3] = molecular target: T3, human PD-L1 on PD-L1-CHO cells (human, UniProt Q9NZQ7 19-290); test: FACS on PD-L1-CHO cells, PE-labeled anti-human Fc secondary antibody; MFI(Mean) against Con(nM)
T3 construct: whole, on cells; also called CHO cells overexpressing human PD-L1; PD-L1 expressed on the cell surface

[4] = molecular target: T1, PD-L1 on CHO-PD-L1 cells (Promega …); test: cell-based or functional assay; remark: listed apart in the source
PD-L1-His antigen [5] = molecular target: T2, PD-L1-His antigen; test: SPR (Biacore), method of Example 5, 1:1 Binding fit
CD47-His antigen = molecular target: T4, CD47-His antigen (human, UniProt Q08722 19-139); test: competitive ELISA, CD47-His coated, competitor SIRPα-Fc-Bio 0.1 µg/mL
T4 construct: Human CD47 ECD with C-terminal 8xHIS tag, expressed in HEK293F; also called hCD47-His; human CD47-His
T4 sequence (Q08722 other isoform, or with tags, fused parts or gaps limits assumed): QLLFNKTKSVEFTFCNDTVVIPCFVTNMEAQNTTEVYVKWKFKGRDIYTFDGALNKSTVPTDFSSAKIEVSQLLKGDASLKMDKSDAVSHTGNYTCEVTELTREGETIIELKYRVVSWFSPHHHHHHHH

T2 sequence (Q9NZQ7 other isoform, or with tags, fused parts or gaps limits assumed): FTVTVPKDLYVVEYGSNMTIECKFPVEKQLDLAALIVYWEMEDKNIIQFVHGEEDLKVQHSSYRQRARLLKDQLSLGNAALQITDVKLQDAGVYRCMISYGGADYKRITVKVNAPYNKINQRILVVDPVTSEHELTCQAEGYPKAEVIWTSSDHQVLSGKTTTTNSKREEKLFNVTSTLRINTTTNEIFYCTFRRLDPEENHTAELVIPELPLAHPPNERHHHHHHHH
T1 sequence (Q9NZQ7 19-290 limits assumed): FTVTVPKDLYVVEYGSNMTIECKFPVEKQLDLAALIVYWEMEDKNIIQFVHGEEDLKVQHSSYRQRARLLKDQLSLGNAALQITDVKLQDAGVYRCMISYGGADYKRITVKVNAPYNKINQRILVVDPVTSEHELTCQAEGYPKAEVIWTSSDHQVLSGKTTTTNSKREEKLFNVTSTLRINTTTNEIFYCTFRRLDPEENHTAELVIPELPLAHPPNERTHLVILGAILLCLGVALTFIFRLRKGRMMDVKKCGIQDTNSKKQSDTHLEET
T3 sequence (Q9NZQ7 19-290): as the sequence (Q9NZQ7 19-290 limits assumed) above

Row | Binder | EC50 (luciferase reporter, PD-1/PD-L1 blockade MOA assay; blocked partner: PD-1 on Jurkat-PD1 cells) [4] | Kd (PD-L1-His antigen [5]) | IC50 (CD47-His antigen) | other results
1 | L1-R2-4-46 (antibody, human IgG1, kappa, V domains shown) VH: EVQLVESGGGLVQPGGSLRLSCAASGFTFSDSWIHWVRQAPGKGLEWVGWISPYGGSTYYADSLGDRFTISADTSKNTAYLQMNSLRAEDTAVYYCARRHWPGGFDYWGQGTLVTVSS VL: EIVLTQSPSSLSASVGDRVTITCLASQTIGTWLAWYQQKPGKSPQLLIYAASTLQSGVPSRFSGSGSGTDFTLTISSLQPEDVATYYCQQYYSTPRTFGQGTKVEIKR |  |  |  | EC50 (luciferase reporter, PD-1/PD-L1 blockade MOA assay; blocked partner: PD-1 on Jurkat-PD1 cells) [1]: 0.224 µg/mL; EC50 (read off the curve) [1]: ~1 µg/mL; Kd (PD-L1-His antigen [2]): 0.282 nM; EC50 (read off the curve) [3]: ~0.6 nM
2 | L1-R2-4 (antibody, V domains shown, Anti-PD-L1 monoclonal antibody, VH CP11-27 with light chain R2-4; also called LI-R2-4) VH: not shown VL: EIVLTQSPSSLSASVGDRVTITCLASQTIGTWLAWYQQKPGKSPQLLIYAASTLQSGVPSRFSGSGSGTDFTLTISSLQPEDVATYYCQQYYSTPRTFGQGTKVEIKR | 2.74 µg/mL | 1.67 nM |  | 
3 | L1-R2-4-55 (antibody, human IgG1, kappa, V domains shown) VH: EVQLVESGGGLVQPGGSLRLSCAASGFTFSDSWIHWVRQAPGKGLEWVGWISPYGGSTYYADGMRSRFTISADTSKNTAYLQMNSLRAEDTAVYYCARRHWPGGFDYWGQGTLVTVSS VL: EIVLTQSPSSLSASVGDRVTITCLASQTIGTWLAWYQQKPGKSPQLLIYAASTLQSGVPSRFSGSGSGTDFTLTISSLQPEDVATYYCQQYYSTPRTFGQGTKVEIKR |  |  |  | EC50 (luciferase reporter, PD-1/PD-L1 blockade MOA assay; blocked partner: PD-1 on Jurkat-PD1 cells) [1]: 0.401 µg/mL; EC50 (read off the curve) [1]: ~2 µg/mL; Kd (PD-L1-His antigen [2]): 0.371 nM
4 | L1-R2-4-36 (antibody, human IgG1, kappa, V domains shown) VH: EVQLVESGGGLVQPGGSLRLSCAASGFTFSDSWIHWVRQAPGKGLEWVGWISPYGGSTYYADDFRHRFTISADTSKNTAYLQMNSLRAEDTAVYYCARRHWPGGFDYWGQGTLVTVSS VL: EIVLTQSPSSLSASVGDRVTITCLASQTIGTWLAWYQQKPGKSPQLLIYAASTLQSGVPSRFSGSGSGTDFTLTISSLQPEDVATYYCQQYYSTPRTFGQGTKVEIKR |  |  |  | EC50 (luciferase reporter, PD-1/PD-L1 blockade MOA assay; blocked partner: PD-1 on Jurkat-PD1 cells) [1]: 0.148 µg/mL; EC50 (read off the curve) [1]: ~1 µg/mL; Kd (PD-L1-His antigen [2]): 0.341 nM; EC50 (read off the curve) [3]: ~0.6 nM
5 | L1-R2-89 (antibody, V domains shown, Anti-PD-L1 monoclonal antibody, VH CP11-27 with light chain R2-89; also called LI-R2-89) VH: not shown VL: DIQMTQSPSSLSASVGDRVTITCLASQTIGTWLAWYQQKPGKSPQLLIYAASSLQSGVPSRFSGSGSGTDFTLTISSLQPEDVATYYCQQYYSTPYTFGQGTKVDIKR | 3.78 µg/mL | 4.08 nM |  | 
6 | L1-R2-18 (antibody, V domains shown, Anti-PD-L1 monoclonal antibody, VH CP11-27 with light chain R2-18; also called LI-R2-18) VH: not shown VL: EIVLTQSPSSVSASVGDRITITCRASQGIGSWLAWYQQKPGKAPSLLIYAASSLQSGVPSRFSGSGSGTDFTLTISSLQTEDVAVYYCQQYFSTPYTFGQGTKVDIKR | 5.09 µg/mL | 3.92 nM |  | 
7 | L1-R2-85 (antibody, V domains shown, Anti-PD-L1 monoclonal antibody, VH CP11-27 with light chain R2-85; also called LI-R2-85) VH: not shown VL: DIQMTQSPSSLSASVGDRVTIPCRASQGIGKFLAWYQQKPGKAPSLLIYAASSLQSGVPSRFSGSGSGTDFTLTISSLQTEDVAVYYCQQYFSTPYTFGQGTKVDIKR | 5.22 µg/mL | 11.5 nM |  | 
8 | antibody 18 (antibody, human IgG1, kappa, V domains shown, IgG1 complete anti-CD47 antibody) VH: QVQLQESGPGLVKPSETLSLTCTVSGGSLDNYYWSWIRQPPGKGLEWIGYIYYSGNTNYNPSLKSRVTISVDTSKNQFSLRLRSVTAADTAVYYCARGRGIFGYWGQGTLVTVSS VL: DIQMTQSPSSVSASVGDRVTISCRANQAIGTWLAWYQQKPGKAPKLLIYAASTLQSGVPSRFSGSGSGTEFTLTISSLQAEDVAVYYCQQYYTTPLTFGGGTKLEIKR |  |  | 1.23 µg/mL | 
9 | antibody 25 (antibody, human IgG1, kappa, V domains shown, IgG1 complete anti-CD47 antibody) VH: QVQLQESGPGLVKPSETLSLTCTVSGGSLDNYYWSWIRQPPGKGLEWIGYIYYSGNTNYNPSLKSRVTISVDTSKNQFSLRLRSVTAADTAVYYCARGGRIFGHWGQGTLVTVSS VL: DIQMTQSPSSVSASVGDRVTISCRANQAIGTWLAWYQQKPGKAPKLLIYAASTLQSGVPSRFSGSGSGTEFTLTISSLQAEDVAVYYCQQYYTTPLTFGGGTKLEIKR |  |  | 1.31 µg/mL | 
10 | antibody L12-6 (antibody, human IgG1, kappa, V domains shown, IgG1 complete anti-CD47 antibody) VH: QVQLQESGPGLVKPSETLSLTCTVSGGSLDNYYWSWIRQPPGKGLEWIGYIYYSGNTNYNPSLKSRVTISVDTSKNQFSLKLSSVTAADTAVYYCARGGRFLERYWGQGTLVTVSS VL: EIVLTQSPSSLSASVGDRVTIPCRASLSIGSFLNWYQQRPGEAPKLLIFAASSLRSGVPSRFSGSGSGTDFTLTISGLQPEDFATYYCQQTYTTPYTFGQGTKVDIKR |  |  | 0.913 µg/mL | 
11 | antibody 3-6 (antibody, human IgG1, kappa, V domains shown, IgG1 complete anti-CD47 antibody) VH: QVQLQESGPGLVKPSETLSLTCTVSGGSLDNYYWSWIRQPPGKGLEWIGYIYYSGNTNYNPSLKSRVTISVDTSKNQFSLRLRSVTAADTAVYYCARGGRIFAGYWGQGTLVTVSS VL: DIQMTQSPSSVSASVGDRVTISCRANQAIGTWLAWYQQKPGKAPKLLIYAASTLQSGVPSRFSGSGSGTEFTLTISSLQAEDVAVYYCQQYYTTPLTFGGGTKLEIKR |  |  | 1.12 µg/mL | 
12 | antibody 3-3 (antibody, human IgG1, kappa, V domains shown, IgG1 complete anti-CD47 antibody) VH: QVQLQESGPGLVKPSETLSLTCTVSGGSLDNYYWSWIRQPPGKGLEWIGYIYYSGNTNYNPSLKSRVTISVDTSKNQFSLRLRSVTAADTAVYYCARGGRIFGGYWGQGTLVTVSS VL: DIQMTQSPSSVSASVGDRVTISCRANQAIGTWLAWYQQKPGKAPKLLIYAASTLQSGVPSRFSGSGSGTEFTLTISSLQAEDVAVYYCQQYYTTPLTFGGGTKLEIKR |  |  | 0.939 µg/mL | 
13 | antibody 10 (antibody, human IgG1, kappa, V domains shown, IgG1 complete anti-CD47 antibody) VH: QVQLQESGPGLVKPSETLSLTCTVSGGSLDNYYWSWIRQPPGKGLEWIGRIYYNGNTNYNPSLKSRVTISVDTSKNQFSLRLRSVTAADTAVYYCARGGRILAGYWGQGTLVTVSS VL: DIQMTQSPSSVSASVGDRVTISCRANQAIGTWLAWYQQKPGKAPKLLIYAASTLQSGVPSRFSGSGSGTEFTLTISSLQAEDVAVYYCQQYYTTPLTFGGGTKLEIKR |  |  | 1.06 µg/mL | 
14 | antibody 24 (antibody, human IgG1, kappa, V domains shown, IgG1 complete anti-CD47 antibody) VH: QVQLQESGPGLVKPSETLSLTCTVSGGSLDNYYWSWIRQPPGKGLEWIGRIYGDSATNYNPSLKSRVTISVDTSKNQFSLRLRSVTAADTAVYYCARGGRIFSGYWGQGTLVTVSS VL: DIQMTQSPSSVSASVGDRVTISCRANQAIGTWLAWYQQKPGKAPKLLIYAASTLQSGVPSRFSGSGSGTEFTLTISSLQAEDVAVYYCQQYYTTPLTFGGGTKLEIKR |  |  | 1.41 µg/mL | 
15 | antibody 3 (antibody, human IgG1, kappa, V domains shown, IgG1 complete anti-CD47 antibody) VH: QVQLQESGPGLVKPSETLSLTCTVSGGSLDGYYWSWIRQPPGKGLEWIGRIYGNSTTNYNPSLKSRVTISVDTSKNQFSLRLRSVTAADTAVYYCARGGRIFAGYWGQGTLVTVSS VL: DIQMTQSPSSVSASVGDRVTISCRANQAIGTWLAWYQQKPGKAPKLLIYAASTLQSGVPSRFSGSGSGTEFTLTISSLQAEDVAVYYCQQYYTTPLTFGGGTKLEIKR |  |  | 0.844 µg/mL | 
16 | antibody 16 (antibody, human IgG1, kappa, V domains shown, IgG1 complete anti-CD47 antibody) VH: QVQLQESGPGLVKPSETLSLTCTVSGGSLDNYYWSWIRQPPGKGLEWIGYIYYSGNTNYNPSLKSRVTISVDTSKNQFSLRLRSVTAADTAVYYCARGGRIFSGYWGQGTLVTVSS VL: DIQMTQSPSSVSASVGDRVTISCRANQAIGTWLAWYQQKPGKAPKLLIYAASTLQSGVPSRFSGSGSGTEFTLTISSLQAEDVAVYYCQQYYTTPLTFGGGTKLEIKR |  |  | 0.975 µg/mL | 
17 | antibody 17 (antibody, human IgG1, kappa, V domains shown, IgG1 complete anti-CD47 antibody) VH: QVQLQESGPGLVKPSETLSLTCTVSGGSLDNYYWSWIRQPPGKGLEWIGYIYYSGNTNYNPSLKSRVTISVDTSKNQFSLRLRSVTAADTAVYYCARGGRFLERYWGQGTLVTVSS VL: DIQMTQSPSSVSASVGDRVTISCRANQAIGTWLAWYQQKPGKAPKLLIYAASTLQSGVPSRFSGSGSGTEFTLTISSLQAEDVAVYYCQQYYTTPLTFGGGTKLEIKR |  |  | 0.795 µg/mL | 
18 | antibody 6 (antibody, human IgG1, kappa, V domains shown, IgG1 complete anti-CD47 antibody) VH: QVQLQESGPGLVKPSETLSLTCTVSGGSLNDYYWSWIRQPPGKGLEWIGRIYGNGDTNYNPSLKSRVTISVDTSKNQFSLRLRSVTAADTAVYYCARGGRILAGYWGQGTLVTVSS VL: DIQMTQSPSSVSASVGDRVTISCRANQAIGTWLAWYQQKPGKAPKLLIYAASTLQSGVPSRFSGSGSGTEFTLTISSLQAEDVAVYYCQQYYTTPLTFGGGTKLEIKR |  |  | 1.1 µg/mL | 
19 | L1-R2-6 (antibody, V domains shown, Anti-PD-L1 monoclonal antibody, VH CP11-27 with light chain R2-6; also called LI-R2-6) VH: not shown VL: EIVLTQSPSSVSASVGDKLTMTCQASQDIGKHLNWYQQKPGKPPKLLIYGASNLKTGVPSRFSGTGSGTDFTLTISSLQPEDFATYYCQQSYTTPYTFGQGTRLEIKR | 3.92 µg/mL | 10.3 nM |  | 
20 | L1-R2-78 (antibody, V domains shown, Anti-PD-L1 monoclonal antibody, VH CP11-27 with light chain R2-78; also called LI-R2-78) VH: not shown VL: DIQMTQSPSSFSASTGDRVTITCRASQGISSYLAWYQQKPGKAPKLLIYAASRLQSGVPSRFSGSGSGTDFTLTISSLQAEDVAVYYCQQYYSTPYTFGQGTKVDIKR | 3.57 µg/mL | 8.99 nM |  | 
